# B1: NGAL: Purified endotoxin-free recombinant NGAL expressed as GST fusion protein in bacteria, thrombin cleaved (protein, UniProt P80188 21-198, looked up)
# Neutrophil …: QDSTSDLIPAPPLSKVPLQQNFQDNQFQGKWYVVGLAGNAILREDKDPQKMYATIYELKEDKSYNVTSVLFRKKKCDYWIRTFVPGCQPGEFTLGNIKSYPGLTSYLVRVVSTNYNQHAMVFFKKVSQNREYFKITLYGRTKELTSELKENFIRFSKSLGLPENHIVFPVPIDQCIDG
# Test system: cortical tubules
# Assay: Fluorescein-TUNEL: percentage of cortical tubules with TUNEL-positive cell
# Format: in vivo, mice
# Conditions: 24 h after reperfusion, SEM; ischemic 11.5%, sham 0.5%
# Text: After 6 or 24 hr of reperfusion, heparinized plasma, urine and kidney samples were obtained to measure NGAL (polyclonal 1:500), Heme oxygenase-1 (Stressgen, 1:2000), E-cadherin (BD Transduction Labs, 1:2000), N-cadherin (BD Transduction Labs, 1:3000) and GAPDH (Chemicon International, 1:3000) using immunoblots. Plasma was also used for creatinine and blood urea nitrogen colorimetric assays. Sagittal sections of the kidney were fixed in 4% formalin, or were snap frozen for mRNA and protein analysis. Paraffin-embedded sections (5 μm) were stained with hematoxylin-eosin or by an in situ kit (Fluorescein-TUNEL, Roche) for apoptotic nuclei or for total nuclei (Toprol, Molecular Probes). For cell proliferation analysis, BrdU was injected into the peritoneum 1 hour before sacrifice, and cryostat sections were stained with anti-BrdU (Roche) according to the manufacturer.
molecule,measurement,value
B1,percentage of cortical tubules with at least one TUNEL-positive tubular cell,2.9%±0.9
